T1: monkey C5-mmh (monkey, UniProt P01031 19-1676 (human entry), limits assumed)
T1 construct: Recombinant monkey C5 with a C-terminal myc-myc-hexahistidine tag
T1 chain: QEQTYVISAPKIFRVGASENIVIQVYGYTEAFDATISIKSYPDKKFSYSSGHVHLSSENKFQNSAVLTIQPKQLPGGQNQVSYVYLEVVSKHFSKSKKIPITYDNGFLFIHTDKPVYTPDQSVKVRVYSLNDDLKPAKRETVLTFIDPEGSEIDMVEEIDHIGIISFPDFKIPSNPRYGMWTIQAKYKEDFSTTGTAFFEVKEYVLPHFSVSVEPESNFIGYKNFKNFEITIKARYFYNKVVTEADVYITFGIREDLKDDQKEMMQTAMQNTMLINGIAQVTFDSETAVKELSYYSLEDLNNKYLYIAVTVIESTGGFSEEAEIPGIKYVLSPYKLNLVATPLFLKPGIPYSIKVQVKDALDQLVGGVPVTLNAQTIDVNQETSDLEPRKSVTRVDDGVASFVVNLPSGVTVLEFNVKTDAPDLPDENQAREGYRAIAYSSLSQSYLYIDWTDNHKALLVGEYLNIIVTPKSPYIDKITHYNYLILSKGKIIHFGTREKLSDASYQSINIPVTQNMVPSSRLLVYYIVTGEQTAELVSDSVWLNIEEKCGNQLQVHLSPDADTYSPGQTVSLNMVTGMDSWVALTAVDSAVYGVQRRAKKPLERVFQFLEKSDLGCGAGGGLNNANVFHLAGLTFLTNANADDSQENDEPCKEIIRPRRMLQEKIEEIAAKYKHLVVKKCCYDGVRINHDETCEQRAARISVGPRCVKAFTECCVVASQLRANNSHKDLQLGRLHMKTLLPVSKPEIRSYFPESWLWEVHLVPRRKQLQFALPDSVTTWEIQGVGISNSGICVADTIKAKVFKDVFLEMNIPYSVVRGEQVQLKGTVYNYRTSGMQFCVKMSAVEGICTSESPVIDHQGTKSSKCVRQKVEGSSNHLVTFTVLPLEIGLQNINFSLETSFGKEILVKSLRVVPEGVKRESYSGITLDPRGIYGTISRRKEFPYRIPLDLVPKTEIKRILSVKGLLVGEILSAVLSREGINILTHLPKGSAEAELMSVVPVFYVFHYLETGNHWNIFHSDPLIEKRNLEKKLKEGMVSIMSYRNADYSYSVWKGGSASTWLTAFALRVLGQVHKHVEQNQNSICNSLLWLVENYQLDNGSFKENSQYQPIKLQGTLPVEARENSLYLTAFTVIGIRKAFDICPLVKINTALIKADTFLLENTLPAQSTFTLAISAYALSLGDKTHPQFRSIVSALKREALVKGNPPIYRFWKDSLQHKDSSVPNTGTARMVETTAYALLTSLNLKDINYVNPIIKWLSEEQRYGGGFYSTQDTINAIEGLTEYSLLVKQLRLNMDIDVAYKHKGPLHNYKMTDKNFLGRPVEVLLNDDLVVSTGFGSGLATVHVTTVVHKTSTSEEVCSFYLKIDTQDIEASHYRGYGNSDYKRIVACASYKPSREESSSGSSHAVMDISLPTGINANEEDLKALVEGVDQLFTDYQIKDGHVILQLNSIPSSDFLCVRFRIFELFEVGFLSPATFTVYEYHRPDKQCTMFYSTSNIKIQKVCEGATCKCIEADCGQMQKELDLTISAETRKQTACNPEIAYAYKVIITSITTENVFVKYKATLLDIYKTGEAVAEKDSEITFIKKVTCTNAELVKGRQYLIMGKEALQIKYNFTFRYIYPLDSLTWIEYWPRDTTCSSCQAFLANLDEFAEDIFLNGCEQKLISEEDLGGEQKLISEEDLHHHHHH


Legend:
human C5 R885H-mmh [1] = biological target: T2, human C5 R885H-mmh (human, UniProt P01031 19-1676); assay: SPR, mAb captured via anti-hFc, 37C
T2 construct: also called human C5 variant R885H
In short: (§1)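 First, the antibodies were captured through their human Fc on an anti-human Fc surface. Next, C5 reagents were injected for 3 min and dissociation in HBST buffer was recorded for 8 min. Finally, sensorgrams were fitted to a 1:1 model and KD derived as kd/ka.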

human C5 R885C-mmh [2] = biological target: T3, human C5 R885C-mmh (human, UniProt P01031 19-1676); assay: SPR, mAb captured via anti-hFc, 37C
T3 construct: also called human C5 variant R885C
In short: as §1

monkey C5-mmh = biological target: T1, monkey C5-mmh; assay: SPR, mAb captured via anti-hFc, 37C
In short: as §1

human C5 = biological target: T4, human C5 (human, UniProt P01031 19-1676); assay: SPR, mAb captured via anti-hFc, dissociation at pH7.4 vs pH6.0, 25C
T4 construct: Bought human C5 (EMD #204888, said elsewhere to be purified from plasma); also called hC5; complement component 5
In short: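 Anti-C5 mAbs (human IgG4 Fc) captured on an amine-coupled mouse anti-human Fc surface; recombinant C5 dissociation followed by Biacore T200 in PBS-T (0.01M phosphate, 0.15M NaCl, 0.05% Tween-20) at pH7.4 or pH6.0. Dissociative half-life (t½) calculated from kd.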

human C5 R885H-mmh [3] = biological target: T2, human C5 R885H-mmh; assay: SPR, mAb captured via anti-hFc, 25C
In short: as §1

human C5 R885C-mmh [4] = biological target: T3, human C5 R885C-mmh; assay: SPR, mAb captured via anti-hFc, 25C
In short: as §1

Binder	100 nM Human C5 R885H-mmh Bound (RU) (human C5 R885H-mmh [1])	Kd (human C5 R885H-mmh [1]) [nM]	koff (human C5 R885H-mmh [1]) [s⁻¹]	kon (human C5 R885H-mmh [1]) [M⁻¹ s⁻¹]	t1/2 (human C5 R885H-mmh [1]) [min]	100 nM Human C5 R885C-mmh Bound (RU) (human C5 R885C-mmh [2])	Kd (human C5 R885C-mmh [2]) [nM]	koff (human C5 R885C-mmh [2]) [s⁻¹]	kon (human C5 R885C-mmh [2]) [M⁻¹ s⁻¹]	t1/2 (human C5 R885C-mmh [2]) [min]	100 nM monkey C5-mmh Bound (RU) (monkey C5-mmh)	Kd (monkey C5-mmh) [nM]	koff (monkey C5-mmh) [s⁻¹]	kon (monkey C5-mmh) [M⁻¹ s⁻¹]	t1/2 (monkey C5-mmh) [min]	t1/2 Ratio pH7.4/pH6.0 (human C5)	100 nM Human C5 R885H-mmh Bound (RU) (human C5 R885H-mmh [3])	Kd (human C5 R885H-mmh [3]) [nM]	koff (human C5 R885H-mmh [3]) [s⁻¹]	kon (human C5 R885H-mmh [3]) [M⁻¹ s⁻¹]	also measured
H4H12168P (antibody, human IgG4, V domains shown, Human IgG4 Fc with S108P hinge mutation (H4H)) VH: QVQLVESGGGVVQPGGSLRLSCAASGFTFGGHAMHWVRQAPGKGLEWLAVISSDGSNKQYADSVKGRFTISRDNPKNTLYLQMNSLRVGDTAIYYCAKEVAPRYYYYGLDVWGQGTTVTVSS VL: DIQMTQSPSSLSASVGDRVTITCRASQDISNFLAWYQQKPGKVPKLLIYTASTLQSGVPSRFSGSGSGTDFTLTVSSLQPEDVATYYCQKYAGALTFGPGTKVDIK	29	50.4	0.00123	24300	9	21	8.9	0.000569	63800	20	29	12.7	0.000676	53300	17	1.5	197	4.05	0.000214	52900	t1/2 (human C5 R885H-mmh [3]): 54 min; 100 nM Human C5 R885C-mmh Bound (RU) (human C5 R885C-mmh [4]): 144 RU; Kd (human C5 R885C-mmh [4]): 3.27 nM; koff (human C5 R885C-mmh [4]): 0.000199 s⁻¹; kon (human C5 R885C-mmh [4]): 60900 M⁻¹ s⁻¹; t1/2 (human C5 R885C-mmh [4]): 58 min
H4H11686N (antibody, V domains shown, also called H2M11686N) VH: QVQLVESGGGLVKPGGSLRLSCAASGFTFSDYYMSWIRQAPGKGLEWVSYISSSGNTIKYADSMKGRFTISRDNAKKSLFVEMNSLRAEDTAVYYCARYKSSSDYFDHWGQGTLVTVSS VL: EIVLTQSPATLSLSPGERATLSCRASQSVRSYLAWYQQKPGQAPRLLIYDASNRATAIPARFSGSGSGTDFTLTISSLEPEDLAVYYCQQSGNWPLTFGGGTKVEIK	74	1.91	0.0008	419000	14	69	2.78	0.000791	284000	15	195	8.88	0.00207	233000	6	2	259	0.491	0.000106	216000	t1/2 (human C5 R885H-mmh [3]): 109 min; 100 nM Human C5 R885C-mmh Bound (RU) (human C5 R885C-mmh [4]): 253 RU; Kd (human C5 R885C-mmh [4]): 0.534 nM; koff (human C5 R885C-mmh [4]): 9.49e-05 s⁻¹; kon (human C5 R885C-mmh [4]): 178000 M⁻¹ s⁻¹; t1/2 (human C5 R885C-mmh [4]): 122 min
H4H12170P (antibody, human IgG4, V domains shown, Human IgG4 Fc with S108P hinge mutation (H4H)) VH: QVQLVESGGGVVQPGRSLRLSCAASGFTFSGYGMHWVRQAPGKGLEWVALIWLDGSNDYYADSVKGRFTISRDNSKNTLYLQMNRLRAEDTAVYYCARDGPVAAIPDYWGQGTLVTVSS VL: DIQMTQSPSTLSASVGDRVTITCRASQSISRWLAWYQLKPGKAPKLLIYKASSLESGVPSRFSGSGSGTDFTLTISSLQPDDFATYYCQQYNTYSYTFGQGTKLEIK	64	1.5	0.000839	559000	14	61	2.05	0.00087	424000	13	60	1.67	0.000871	521000	13	≤ 0.5	442	0.394	0.000161	409000	t1/2 (human C5 R885H-mmh [3]): 72 min; 100 nM Human C5 R885C-mmh Bound (RU) (human C5 R885C-mmh [4]): 427 RU; Kd (human C5 R885C-mmh [4]): 0.447 nM; koff (human C5 R885C-mmh [4]): 0.00016 s⁻¹; kon (human C5 R885C-mmh [4]): 357000 M⁻¹ s⁻¹; t1/2 (human C5 R885C-mmh [4]): 72 min
H4H12164P (antibody, human IgG4, V domains shown, Human IgG4 Fc with S108P hinge mutation (H4H)) VH: EVQLVESGGGLVRSGGSLRLSCAASGFTFNRYAMTWVRQAPGKGLEWVSAISGSGSSTYYTDSVKGRFTISRDNSKNSVDLQMHSLRVEDTAIYYCARGTTVTTGYGMDVWGQGTTVTVSS VL: DIQMTQSPSSLSASVGDRVTFTCQASQDITNSLNWYQQKPGRAPKLLIYDASYLKAGVPSRFSGSGSGTDFTFTISSLQPEDIATYYCQQYDDLPYTFGQGTKLEIK	68	5.46	0.00106	195000	11	64	5.85	0.00104	177000	11	99	6.3	0.00117	186000	10	0.3	295	1.19	0.000187	158000	t1/2 (human C5 R885H-mmh [3]): 62 min; 100 nM Human C5 R885C-mmh Bound (RU) (human C5 R885C-mmh [4]): 249 RU; Kd (human C5 R885C-mmh [4]): 1.19 nM; koff (human C5 R885C-mmh [4]): 0.000182 s⁻¹; kon (human C5 R885C-mmh [4]): 153000 M⁻¹ s⁻¹; t1/2 (human C5 R885C-mmh [4]): 63 min
